{"source": "paper PMC9045202", "biological_target": "EFG displayed on the surface of E. coli BL21 as a fusion with InaZN and mCherry (BL21-pEImC-EFG) (Escherichia coli (ExPEC strain RS218)) (UniProt P0A6M8)", "sequence (P0A6M8 whole entry, the tested form may be a part)": "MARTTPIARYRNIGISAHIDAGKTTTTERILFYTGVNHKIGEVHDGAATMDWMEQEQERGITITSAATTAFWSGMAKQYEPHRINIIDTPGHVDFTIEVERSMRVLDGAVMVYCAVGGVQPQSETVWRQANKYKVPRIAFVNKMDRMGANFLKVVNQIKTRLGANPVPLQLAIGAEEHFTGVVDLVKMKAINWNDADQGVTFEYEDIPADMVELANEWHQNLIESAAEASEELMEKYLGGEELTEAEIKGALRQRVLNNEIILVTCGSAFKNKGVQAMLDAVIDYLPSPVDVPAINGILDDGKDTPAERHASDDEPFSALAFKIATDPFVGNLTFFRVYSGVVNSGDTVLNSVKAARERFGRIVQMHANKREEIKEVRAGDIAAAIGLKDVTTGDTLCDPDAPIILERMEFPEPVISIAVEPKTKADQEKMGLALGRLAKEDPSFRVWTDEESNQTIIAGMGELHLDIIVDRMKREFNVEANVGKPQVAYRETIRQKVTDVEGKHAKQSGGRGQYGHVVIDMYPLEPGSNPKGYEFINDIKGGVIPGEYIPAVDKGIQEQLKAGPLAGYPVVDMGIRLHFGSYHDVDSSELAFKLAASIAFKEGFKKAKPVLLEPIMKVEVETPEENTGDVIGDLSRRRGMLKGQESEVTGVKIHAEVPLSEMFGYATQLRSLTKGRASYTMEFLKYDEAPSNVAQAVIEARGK", "test": "fluorescence intensity of labelled ligand bound to bacteria, competition; BL21-pEImC-EFG incubated with a mixture of fluor-TF (20 μg/mL) and an excess of unlabeled holo-TF; fluorescence of 10^7 bacterial cells, excitation 485 nm, emission 535 nm", "data": [{"substance": "holo-transferrin (iron-saturated holo-TF), unlabeled (from UniProt P02787 20-698) (natural protein)", "values": [{"measurement": "fluorescence intensity of bound fluor-TF with an excess of unlabeled holo-TF", "result": 76.4, "unit": "%"}]}]}
